Here are results for one molecule from patent publication US20220105163A1.

In the test the target is Recombinant human IL-6 (human) (UniProt P05231). Nature of the test: cell-based or functional assay.
Sequence of Recombinant human IL-6 (human) (P05231 30-212 limits assumed): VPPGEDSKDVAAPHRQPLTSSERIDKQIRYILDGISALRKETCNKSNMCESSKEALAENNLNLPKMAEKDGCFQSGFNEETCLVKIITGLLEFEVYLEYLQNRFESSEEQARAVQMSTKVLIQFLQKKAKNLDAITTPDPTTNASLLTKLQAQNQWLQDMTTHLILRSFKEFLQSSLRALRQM

B1: ALD518 (antibody, INN chains, looked up, V domains shown)
VH: EVQLVESGGGLVQPGGSLRLSCAASGFSLSNYYVTWVRQAPGKGLEWVGIIYGSDETAYATSAIGRFTISRDNSKNTLYLQMNSLRAEDTAVYYCARDDSSDWDAKFNLWGQGTLVTVSS
VL: AIQMTQSPSSLSASVGDRVTITCQASQSINNELSWYQQKPGKAPKLLIYRASTLASGVPSRFSGSGSGTDFTLTISSLQPDDFATYYCQQGYSLRNIDNAFGGGTKVEIK
B1: the IC50 (µg/mL), IL-6 induced TF-1 proliferation turned out to be 0.629 µg/mL.
